Tests used:
Conditions in all cases: 0.1 M Tris-acetate pH 7.6, 30°C, apparent
C[C@H](Cl)C(=O)O [1] = experiment: purified protein
C[C@@H](Cl)C(=O)O [2] = experiment: purified protein
C[C@@H](Cl)C(=O)O [3] = test system: T1, C[C@@H](Cl)C(=O)O; experiment: colourimetric chloride release (Bergmann and Sanik), A460; type: biochemical, Rhizobium sp. RC1
T1 construct: recombinant from pET-22b(+)-dehE in E. coli, purified from cell-free extract; 32 kDa band on SDS-PAGE; monomeric
Description: (§1) colourimetric chloride release (Bergmann and Sanik), A460 on DehE (non-stereospecific α-haloalkanoic acid dehalogenase E)

O=C(O)CCCl = test system: T2, O=C(O)CCCl; experiment: as above; type: biochemical, Rhizobium sp. RC1
T2 construct: recombinant from pET-22b(+)-dehE in E. coli, purified from cell-free extract; 32 kDa band on SDS-PAGE; monomeric
Description: as §1

C[C@H](Cl)C(=O)O [4] = test system: T3, C[C@H](Cl)C(=O)O; experiment: as above; type: biochemical, Rhizobium sp. RC1
T3 construct: recombinant from pET-22b(+)-dehE in E. coli, purified from cell-free extract; 32 kDa band on SDS-PAGE; monomeric
Description: as §1

Row | Substance | Km (C[C@H](Cl)C(=O)O [1]) | kcat (C[C@H](Cl)C(=O)O [1]) | kcat/Km (C[C@H](Cl)C(=O)O [1]) | Km (C[C@@H](Cl)C(=O)O [2]) | kcat (C[C@@H](Cl)C(=O)O [2]) | kcat/Km (C[C@@H](Cl)C(=O)O [2]) | Km (C[C@@H](Cl)C(=O)O [3]) | kcat (C[C@@H](Cl)C(=O)O [3]) | kcat/Km (C[C@@H](Cl)C(=O)O [3]) | Km (O=C(O)CCCl) | kcat (O=C(O)CCCl) | kcat/Km (O=C(O)CCCl) | Km (C[C@H](Cl)C(=O)O [4]) | kcat (C[C@H](Cl)C(=O)O [4]) | kcat/Km (C[C@H](Cl)C(=O)O [4])
1 | DehE (non-stereospecific α-haloalkanoic acid dehalogenase E) (Rhizobium sp. RC1) | (4.3 ± 0.02) x 10^-4 M | 12.3 s⁻¹ | 28600 M⁻¹ s⁻¹ | (4.8 ± 0.03) x 10^-4 M | 7.76 s⁻¹ | 16100 M⁻¹ s⁻¹ | – | – | – | – | – | – | – | – | –
2 | DehE (non-stereospecific α-haloalkanoic acid dehalogenase E) (Rhizobium sp. RC1; S188V) | – | – | – | – | – | – | (4.5 ± 0.01) x 10^-4 M | 9.18 s⁻¹ | 20400 M⁻¹ s⁻¹ | (4.9 ± 0.02) x 10^-4 M | 12.6 s⁻¹ | 25600 M⁻¹ s⁻¹ | (4.2 ± 0.02) x 10^-4 M | 13.1 s⁻¹ | 31200 M⁻¹ s⁻¹

Reference: paper PMC4376737, “An S188V Mutation Alters Substrate Specificity of Non-Stereospecific α-Haloalkanoic Acid Dehalogenase E (DehE)” (PLoS ONE, 2015)
